Laboratory results taken from patent US20230287125A1 (LEPU BIOPHARMA, published 2023).

Key:
human PD-L1-Fc protein [1] = target: T1, human PD-L1-Fc protein (human, UniProt Q9NZQ7 19-238); test: receptor blocking ELISA: coated human PD-L1-Fc, blocked ligand biotin-labeled human PD-1-Fc (Bio-PD1), OD 450nm; upper right panel (with Hu67F3G7-3)
T1 construct: coating antigen of the ELISAs; also called rhPD-L1-Fc; not shown: Fc
Procedure: (§1) Briefly, microtiter plates were coated with human PD-L1-Fc protein at 0.5 μg/ml in PBS, 100 μl/well at 4° C. overnight, then blocked with 150 μl/well of 1% BSA at 37° C. for 2 hours. […] The plates were washed with PBS/Tween and then incubated with Streptavidin-HRP for 10 mins at 37° C. After washing, the plates were developed with TMB substrate and analyzed by spectrophotometer at OD 450 nm.

human PD-L1-Fc protein [2] = target: T1, human PD-L1-Fc protein; test: receptor blocking ELISA: coated human PD-L1-Fc, blocked ligand biotin-labeled human PD-1-Fc (Bio-PD1), OD 450nm; middle left panel (with Hu67F3G7-5)
Procedure: as §1

human PD-L1-Fc protein [3] = target: T1, human PD-L1-Fc protein; test: receptor blocking ELISA: coated human PD-L1-Fc, blocked ligand biotin-labeled human CD80-Fc (Bio-CD80), OD 450nm; upper left panel (with Hu67F3G7-2)
Procedure: as §1

human PD-L1-Fc protein [4] = target: T1, human PD-L1-Fc protein; test: ELISA, antibody titrated on coated human PD-L1-Fc, OD 450nm; upper left panel (with Hu67F3G7-1 to -6)
Procedure: (§2) To evaluate antigen binding activity, the humanized antibodies were subjected to ELISA test. Briefly, microtiter plates were coated with human PD-L1-Fc protein at 0.5 μg/ml in PBS, 100 μl/well at 4° C. overnight, then blocked with 200 μl/well of 1% BSA. Three-fold dilutions of humanized antibodies starting from 10 μg/ml were added to each well and incubated for 1 hour at 37° C. The plates were washed with PBS/Tween and then incubated with mouse-anti-human IgG Fab antibody conjugated with Horse Radish Peroxidase (HRP) for 1 hour at 37° C. After washing, the plates were developed with TMB substrate and analyzed by spectrophotometer at OD 450 nm.

cynomolgus PD-L1 protein = cynomolgus PD-L1 protein (cynomolgus, UniProt G7PSE7 19-238); test: ELISA, coated cynomolgus PD-L1
[5] = target: T2, human PD-L1 over-expressed on CHOK1 cells (human, UniProt Q9NZQ7 19-290); test: flow cytometry on PDL1-CHOK1 cells
T2 construct: whole, on cells; also called PDL1-CHOK1 cells
Procedure: After washing by PBS, Alexa Fluor® 647 AffiniPure Goat Anti-Human IgG (H+L) was added to each well and incubated at 4° C. for 30 mins. Samples were washed twice with FACS buffer. The mean florescence intensity (MFI) of Alexa Fluor® 647 was evaluated by FACSCanto.

human PD-L1-Fc protein [6] = target: T1, human PD-L1-Fc protein; test: receptor blocking ELISA: coated human PD-L1-Fc, blocked ligand biotin-labeled human PD-1-Fc (Bio-PD1), OD 450nm; upper left panel (with Hu67F3G7-2)
Procedure: as §1

human PD-L1-Fc protein [7] = target: T1, human PD-L1-Fc protein; test: ELISA, coated human PD-L1 (PD-L1-Fc per paragraph 110)
Procedure: as §1, with “1% BSA.” for “1% BSA at 37° C. for 2 hours.”, “with Mouse-anti-human IgG Fab antibody conjugated with Horse Radish Peroxidase (HRP)” for “with Streptavidin-HRP”, “for 30” for “for 10”
Briefly, microtiter plates were coated with human, mouse, rat and cynomolgus PD-L1 proteins at 0.5 μg/ml in PBS, 100 μl/well at 4° C. overnight, then blocked with 150 μl/well of 1% BSA. Three-fold dilutions of chimeric antibodies starting from 10 μg/ml were added to each well and incubated for 1 hour at 37° C. The plates were washed with PBS/Tween and then incubate with mouse-anti-human IgG Fab antibody conjugated with Horse Radish Peroxidase (HRP) for 30 mins at 37° C. After washing, the plates were developed with TMB substrate and analyzed by spectrophotometer at OD 450 nm.

mouse PD-L1 protein = mouse PD-L1 protein (mouse, UniProt Q9EP73 19-239); test: ELISA, coated mouse PD-L1
human PD-L1-Fc protein [8] = target: T1, human PD-L1-Fc protein; test: receptor blocking ELISA: coated human PD-L1-Fc, blocked ligand biotin-labeled human PD-1-Fc (Bio-PD1), OD 450nm; panel with Hu67F3G7-22 [cont'd]
Procedure: as §1

human PD-L1-Fc protein [9] = target: T1, human PD-L1-Fc protein; test: receptor blocking ELISA: coated human PD-L1-Fc, blocked ligand biotin-labeled human CD80-Fc (Bio-CD80), OD 450nm; upper right panel (with Hu67F3G7-3)
Procedure: as §1

human PD-L1-Fc protein [10] = target: T1, human PD-L1-Fc protein; test: competition ELISA, coated human PD-L1-Fc, biotin-labeled human PD-1-Fc as competitor
Procedure: as §1, with “BSA.” for “BSA at 37° C. for 2 hours.”

human PD-L1-Fc protein [11] = target: T1, human PD-L1-Fc protein; test: receptor blocking ELISA: coated human PD-L1-Fc, blocked ligand biotin-labeled human CD80-Fc (Bio-CD80), OD 450nm; panel with Hu67F3G7-22 [cont'd]
Procedure: as §1

human PD-L1-Fc protein [12] = target: T1, human PD-L1-Fc protein; test: ELISA, antibody titrated on coated human PD-L1-Fc, OD 450nm; lower right panel (with Hu67F3G7-19 to -22)
Procedure: as §2

T1 sequence (Q9NZQ7 19-238 limits assumed): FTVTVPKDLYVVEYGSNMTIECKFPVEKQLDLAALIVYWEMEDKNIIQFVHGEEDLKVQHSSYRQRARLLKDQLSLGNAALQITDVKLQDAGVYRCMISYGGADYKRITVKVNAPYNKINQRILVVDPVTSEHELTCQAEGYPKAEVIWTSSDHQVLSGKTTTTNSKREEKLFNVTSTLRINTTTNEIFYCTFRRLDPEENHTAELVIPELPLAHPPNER
T2 sequence (Q9NZQ7 19-290): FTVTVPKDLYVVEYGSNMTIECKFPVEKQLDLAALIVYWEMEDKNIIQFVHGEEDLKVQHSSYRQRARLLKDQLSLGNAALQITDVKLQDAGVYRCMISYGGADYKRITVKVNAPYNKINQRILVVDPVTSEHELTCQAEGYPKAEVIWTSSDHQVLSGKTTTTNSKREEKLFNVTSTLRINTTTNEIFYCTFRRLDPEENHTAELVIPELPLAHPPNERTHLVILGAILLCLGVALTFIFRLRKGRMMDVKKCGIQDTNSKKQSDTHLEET
cynomolgus PD-L1 protein, sequence (G7PSE7 entry or part of it): as the sequence (Q9NZQ7 19-238 limits assumed) above, with A33T, A34S, S62N, R68Q, Q82R, F173L, T185A, T192I, H215L counted along it
mouse PD-L1 protein, sequence (Q9EP73 19-239 limits assumed): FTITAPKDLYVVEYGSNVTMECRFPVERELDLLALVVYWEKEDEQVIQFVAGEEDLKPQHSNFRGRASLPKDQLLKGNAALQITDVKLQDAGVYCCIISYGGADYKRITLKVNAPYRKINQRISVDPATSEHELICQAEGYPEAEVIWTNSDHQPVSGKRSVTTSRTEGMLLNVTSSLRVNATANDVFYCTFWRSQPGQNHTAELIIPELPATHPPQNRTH

IC50 (human PD-L1-Fc protein [1]): 0.136 µg/mL
IC50 (human PD-L1-Fc protein [2]): 0.149 µg/mL
IC50 (human PD-L1-Fc protein [3]): 0.256 µg/mL
EC50 (human PD-L1-Fc protein [4]): 0.0141 µg/mL
EC50 (cynomolgus PD-L1 protein): 6.8 ng/mL
EC50 [5]: 0.103 nM
IC50 (human PD-L1-Fc protein [6]): 0.149 µg/mL
EC50 (human PD-L1-Fc protein [7]): 0.0108 µg/mL
IC50 (human PD-L1-Fc protein [8]): 0.141 µg/mL
IC50 (human PD-L1-Fc protein [9]): 0.289 µg/mL
IC50 (human PD-L1-Fc protein [10]): 0.14 µg/mL
IC50 (human PD-L1-Fc protein [11]): 0.293 µg/mL
EC50 (human PD-L1-Fc protein [12]): 0.0147 µg/mL
B1: 67F3G7 chimeric mAb (antibody, V domains shown)
VH: QVKLLQSGAALVKPGASVKMSCKASGYIFTDFWVSWVKQSHEKSLEWIGEIYPNSGVSRYNEKFKGRATMTVDKSTSTAYLELSRLTSEDSAIYYCTKYFGYTYWFGYWGQGTLVTVSS
VL: DTVLTQSPALAVSLGQRITISCRASKSVSTYMHWYQQRSGLQPKLLIYSASHLESGVPSRFSGSGSGTDFTLTIDPVEADDIANYYCQQSNELPVTFGSGTKLEIK
notes: chimeric mAb of the hybridoma clone; also called 67F3G7-chimera
binding result (mouse PD-L1 protein): no binding (tested: dilutions starting from 10 µg/ml)
